Patent US7271245B2, “Methods and compositions for inhibition of metastasis” (The Scripps Research Institute, priority 2004, dated 2007)

Assays:
BMS breast cancer cells = assay: Antibody internalization (confocal microscopy); assay type: cell-based, human; conditions: FITC-labeled scFv, permissive temperature (37° C.)
Description: FIGS. 3A, 3B, 3C, 3D, 3E. scFv Bc-12 and Bc-15 inhibit αvβ3 mediated adhesive breast cancer cell functions. (A) Adhesion of BMS human breast cancer cells to fibrinogen (Fg), vitronectin (VN) or type I collagen (Col I) in the absence or presence of 3 μM Bc-12, Bc-15 or their RGE mutants Mut-12, Mut-15, compared to 200 μM GRGDSPK peptide (SEQ ID NO: 11). Protein coating concentrations: 10 μg/ml (VN, Col I) or 20 μg/ml (Fg). Adhesion time: 30 min at 37° C. (B) Effect of scFvs on haptotactic BMS cell migration toward a fibrinogen substrate (16 hrs at 37° C. in transwell chambers with or without 2 μM Bc-12, Bc-15 or their RGE mutants Mut-12 or Mut-15, compared to 200 μM GRGDSPK peptide) (SEQ ID NO: 11). (C) Effect of scFvs on breast cancer cell arrest during blood flow. […] Tumor cell adhesion was quantified by image acquisition at 30 predefined positions during blood flow. Left: representative images of platelet signal (thrombi, green fluorescence) and tumor cell signal (red fluorescence) at identical x,y positions. […]
Antibody internalization. Breast cancer cells grown in chamber slide wells were incubated with 20 μg/ml FITC-labeled scFv in serum free EMEM for 3 h either at 4° C. or 37° C., washed 10 times, fixed and permeabilized with 95% ethanol, stained with propidium iodide, mounted in antifade solution, and analyzed with a laser scanning confocal microscope.

[1] = system: BMS human breast cancer cells; assay: Experimental metastasis in vivo (lung colonization); set-up: species or system mouse
Description: FIGS. 5A, 5B, 5C. ScFvs Bc-12 and Bc-15 prevent hematogenous breast cancer metastasis. (A) Left: Lungs of female SCID mice 32 days after i.v. injection with 1×10^5 BMS human breast cancer cells. The mice were treated with 50 μg Bc-12 or Bc-15 in 100 μl PBS (i.v.) on days 1, 2, 3 and 4. Controls received PBS only. Right: Numbers of lung surface metastases for each animal, horizontal lines indicate the median number of metastases per group. […] (B) Left: Histological sections of the above mouse lungs, stained with hematoxylin/eosin. Metastases were counted in six sets of three consecutive sections separated by 140 μm for each lung. Right: Number of metastases counted in sections of individual lungs, horizontal lines indicate median number of metastases per animal group. […] (C) Effect of Bc-15 treatment on established breast cancer metastasis in the lungs. Female SCID mice were injected i.v. with 5×10^5 DsRed2-tagged MDA-MB 435 breast cancer cells expressing constitutively activated integrin αvβ3D723R. Mice were treated on day 7, 9, 11 and 14, 16, 18 by i.v. injections of scFv Bc-15 or its RGE mutant, Mut-15 (40 μg/dose). Metastatic foci were enumerated by fluorescence microscopy on day 19. Left: Images of typical tumor foci within the lung tissue in Mut-15 (top) or Bc-15 treated mice (bottom) (bar: 50 μm). Right: Number of metastatic foci within the lung tissue of each animal, horizontal line: median number of metastases per group.
Experimental metastasis in vivo. 1×10^5 BMS human metastatic breast cancer cells were injected into the lateral tail veins of 9 week old female C.B17/lcrTac-Prkdc scid mice (Taconic Farms) (n=8 to 10) together with a 50 μg bolus dose of scFv. I.v. Injections of 50 μg scFv bolus doses were repeated on days 2, 3 and 4 of the experiment. Control animals received vehicle only (PBS). For in vivo use, endotoxin was removed from scFv preparations on Detoxy-Gel resin (Pierce). Remaining traces ranged from 0.001 to 0.07 EU endotoxin/mg scFv (LAL test, Bio Whittaker). On day 32, mice were euthanized, dissected, the lungs excised, fixed in Bouin's solution, and metastatic foci counted at the lung surface under a dissecting microscope. The same lungs were embedded in paraffin, and 10 μm sections were cut and stained with hematoxylin/eosin. Per lung, 7 sets of three consecutive sections were collected, separated by 140 μm. The sections were randomized and coded, and the total number of metastatic foci counted.
To test directly whether targeting activated integrin αvβ3 with the ligand mimetic antibodies Bc-12 and-15 affects target organ colonization by circulating metastatic breast cancer cells, 1×10^5 BMS human breast cancer cells were injected intravenously into female C.B-17 SCID mice, together with 50 μg sterile, endotoxin free preparations of Bc-12 or Bc-15 (n=8-10 mice per group). At an average blood volume of 2 ml per mouse, this provides an initial scFv concentration of 1 μM. The clearance time for scFv antibody fragments in the circulation is less than 1 h. Kortt et al., Biomol. Eng, 18: 95-108, 2001. Tumor cells may remain in the circulation for several days. Therefore, scFv antibody injections (50 μg bolus doses, i.v.) were repeated on the second, third and fourth day. […] After 32 days, the mice were euthanized, dissected and analyzed by gross examination. […] The lungs were excised, fixed, and metastatic foci counted at the lung surface. Each of the control treated mice had tumor foci on their lungs (range: 8 to 68 foci per lung). In stark contrast, only two animals in the Bc-12 treated group, and 1 animal in the Bc-15 treated group had one visible nodule at their lung surface (FIG. 5A).
Per lung, six sets of three consecutive sections, separated by 140 μm, were collected. The sections were randomized and coded, and the total number of metastatic foci counted. All control animals had metastases in their lung tissues (range: 7 to 48 counts per lung), and those were of considerable size (FIG. 5B top image). […]

B1: Bc-12: patient derived human scFv antibody against activated αvβ3 with RGD motif in CDR-H3; cDNA ATCC PTA-6303 (protein)
scFv: MAQVQLVQSGAEVKKPGASVKVSCKASGYTFSNYGITWVRQAPGQGLEWMGWINNGNTHYAQKFQGRVTMTTDTSTSTAYMELRSLRSDDTAVYYCARDPRGDDEPYWGQGTLVTVSSGGGGSGGGGSGGGGSEIVLTQSPLSLPVTLGQPASISCRSSQNLVYSDGNTYLSWFQQRPGQSPRRLIYKVSNRDSGVPDRFSGSGSGTDFTLKISRVEAEDIGVYYCMQGTHWPPRTFGQGTKVEIKRGLGGLVDYKDDDDK
binding and internalization by adherent cells (BMS breast cancer cells): efficiently bound and readily internalized | health status during the experiment ([1]; 50 μg i.v. days 1-4, 32 days): appeared healthy | number of lung surface metastases versus PBS control ([1]; 50 μg i.v. days 1-4, day 32, P<0.001 Kruskal Wallis): significantly fewer metastases | number of metastases in lung sections versus PBS control ([1]; P<0.005 Kruskal Wallis): significantly fewer detectable metastases | animals with one visible nodule at lung surface ([1]; SCID mice, 50 μg i.v. days 1-4, day 32, n=8-10 per group, controls 8 to 68 foci per lung): two | gross examination at dissection ([1]; day 32): No obvious abnormalities | mice with microscopically detectable metastases in lung tissue ([1]; histological sections, day 32, all controls positive): 3 of 10
